For test [1], the target named is T1, human IL-33 (R&D Systems, #3625-IL-010/CF) (human) (UniProt O95760).
T1 sequence (looked up): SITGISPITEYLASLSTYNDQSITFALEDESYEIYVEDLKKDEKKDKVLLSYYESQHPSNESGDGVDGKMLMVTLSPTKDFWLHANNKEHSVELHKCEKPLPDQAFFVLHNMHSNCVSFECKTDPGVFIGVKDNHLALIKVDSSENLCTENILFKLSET
The experiment in a line: SPR Biacore T200, 37 C. In general terms: SPR reads the build-up and loss of mass on a sensor chip optically.

The target of test [2] is T1, human IL-33 (R&D Systems, #3625-IL-010/CF) (human).
Test [3] shares this target. The source holds these as a separate data set.
Test [4] deals with T2, biotinylated human IL-33 (human) (UniProt O95760).
T2 sequence (biotin-labeled with EZ-LINK NHS-PEG4-Biotin, looked up): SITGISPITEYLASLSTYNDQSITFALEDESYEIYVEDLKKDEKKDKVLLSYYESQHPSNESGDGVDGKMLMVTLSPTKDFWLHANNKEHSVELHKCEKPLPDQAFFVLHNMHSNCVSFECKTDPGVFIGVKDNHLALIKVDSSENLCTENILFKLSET
As to the kind of experiment: competitive ELISA, biotin-huIL-33 to coated hST2-Fc. (In general: ELISA stands for enzyme-linked immunosorbent assay.)

Test [5] concerns the target T1, human IL-33 (R&D Systems, #3625-IL-010/CF) (human). The source holds these as a separate data set.
Test [6] has the same target. As to the kind of experiment: SPR Biacore T200, 25 C.
The target is the same in test [7]. This is another data set of the same source.
The target is the same in test [8]. This is another data set of the same source.
Test [9] has the same target. The source holds these as a separate data set.
Test [10] shares this target. The experiment in a line: cell-based or functional assay.

B1: H4H9672P (antibody, from another filing, IgG4, V domains shown)
VH: EVQLVESGGGLVQPGGSLRLSCAASGFTLRSYVMYWVRQGPGKGLEGVSGISGSSGGTYYTDSVKGRFTISRDNSKNTLFLQMNSLRAEDTAVYFCARSVYSTTWYGGFQHWGQGTLVTVSS
VL: DIQMTQSPSSVSVSVGDRVTITCRASQVISSWLAWYQLKPGKAPKLLIYAASSLQSGVPSRFSGSGSGTDFTLTISGLQPEDFAVYYCQQTNSFPLTFGGGTKVEIK
In [1], B1 came in with a dissociation constant (Kd) of 0.531 nM, an off-rate (koff) of 0.00127 s⁻¹, a kon of 2.39e+06 M⁻¹ s⁻¹ and a t1/2 of 9 min. Moreover, the Ph-p38 MFI at 0.4 nM Ab (500 pM human IL-33, primary basophils) in [2] stood at 113 MFI. In addition, the IC50, IL-33-induced phospho-p38 in primary human basophils, 500 pM hIL-33 in test [3] worked out at 5.7e-13 M. Further, in test [4], the IC50 was 0.22 nM and the Maximum Blocking stood at 77%. Moreover, in [5], the Ph-p38 MFI at 2 nM Ab (500 pM human IL-33, primary basophils) stood at 61 MFI. In test [6], the Kd was 0.839 nM, the koff came out at 0.000806 s⁻¹, the kon amounted to 960000 M⁻¹ s⁻¹ and the t1/2 stood at 14 min. This molecule also returned an IC50; SEAP reporter (OD 620), HEK-BLUE IL-33/IL-1beta cells, 10 pM hIL-33 in test [7] of 9.8e-10 M. This molecule also showed an IC50 (read off the curve) in test [8] of 0.0006 nM.

B2: H4H9662P (antibody, from another filing, IgG4, V domains shown)
VH: EVQLVESGGGLVQPGGSLRLSCAASGFTFSSYALTWVRQAPGKGLEWVSFISGSGGRPFYADSVKGRFTISRDNSKNMLYLQMNSLRAEDTAIYYCAKSLYTTSWYGGFDSWGQGTLVTVSS
VL: DIQMTQSPSSVSASVGDRVTITCRASQGVVSWLAWYQQKPGKAPKLLIYAASSLQSGVPSRFSGSGSGTDFTLTISSLQPEDFATYYCQQSNSFPFTLGPGTKVDIK
In [1], B2 registered a Kd of 0.242 nM, a koff of 0.000566 s⁻¹, a kon of 2.34e+06 M⁻¹ s⁻¹ and a t1/2 of 20 min. In addition, the Ph-p38 MFI at 0.4 nM Ab (500 pM human IL-33, primary basophils) in [2] came to 86 MFI. This molecule also came in with an IC50, IL-33-induced phospho-p38 in primary human basophils, 500 pM hIL-33 in test [3] of 2.5e-09 M. In test [4], this molecule returned an IC50 of 0.25 nM and a Maximum Blocking of 85%. The molecule also came in with a Ph-p38 MFI at 2 nM Ab (500 pM human IL-33, primary basophils) in test [5] of 44 MFI. For the same molecule, in test [6], the Kd was 0.527 nM, the koff turned out to be 0.000459 s⁻¹, the kon was 871000 M⁻¹ s⁻¹ and the t1/2 is 25 min. Moreover, the IC50; IFN-gamma ELISA, primary human NK cells, 260 pM hIL-33 + IL-12 in test [9] was found to be 1.2e-09 M. This molecule also came in with an IC50; SEAP reporter (OD 620), HEK-BLUE IL-33/IL-1beta cells, 10 pM hIL-33 in test [7] of 1.5e-10 M.

B3: H4H9675P (antibody, from another filing, IgG4, V domains shown)
VH: EVQLVESGGNLEQPGGSLRLSCTASGFTFSRSAMNWVRRAPGKGLEWVSGISGSGGRTYYADSVKGRFTISRDNSKNTLYLQMNSLSAEDTAAYYCAKDSYTTSWYGGMDVWGHGTTVTVSS
VL: DIQMTQSPSSVSASVGDRVTITCRASQGIFSWLAWYQQKPGKAPKLLIYAASSLQSGVPSRFSGSGSGTDFTLTISSLQPEDFAIYYCQQANSVPITFGQGTRLEIK
In test [1], B3 returned a Kd of 0.192 nM, a koff of 0.000779 s⁻¹, a kon of 4.06e+06 M⁻¹ s⁻¹ and a t1/2 of 15 min. This molecule also displayed a Ph-p38 MFI at 0.4 nM Ab (500 pM human IL-33, primary basophils) in test [2] of 48 MFI. The IC50, IL-33-induced phospho-p38 in primary human basophils, 500 pM hIL-33 in test [3] was 3.5e-13 M. Moreover, in test [4], the IC50 was found to be 0.063 nM and the Maximum Blocking amounted to 84%. In test [5], this molecule returned a Ph-p38 MFI at 2 nM Ab (500 pM human IL-33, primary basophils) of 30 MFI. In test [6], this molecule came in with a Kd of 0.391 nM, a dissociation rate constant (koff) of 0.000637 s⁻¹, a kon of 1.63e+06 M⁻¹ s⁻¹ and a t1/2 of 18 min. In [10], this molecule registered an HEK-BLUE SEAP reporter IC50 of 0.011 nM; an IFN-γ secretion from primary NK cells, IC50 of 0.097 nM; a phospho-p38 in primary basophils, IC50 of 0.00038 nM.

B4: H4H9671P (antibody, from another filing, IgG4, V domains shown)
VH: EVQLVESGGGLVQPGGSLRLSCAASGFTLRSYFMTWVRQVPGKGLEGVSAISGISGGTYYTDSVKGRFTISRDNSKNTLFLQMNSLRAEDTAVYFCARTVYSSSYYGGFQHWGQGTLVTVSS
VL: DIQMTQSPSSVSVSVGDRVTITCRASQGISSWLAWYQQKPGKAPKLLIYVASSLQSGVPSRFSGSGSGTDFTLTISSLQPEDFATYYCQQTNSFPLTFGGGTKVEIK
In test [1], B4 came in with a Kd of 0.552 nM, an off-rate (koff) of 0.00203 s⁻¹, a kon of 3.68e+06 M⁻¹ s⁻¹ and a t1/2 of 6 min. For the same molecule, in test [2], the Ph-p38 MFI at 0.4 nM Ab (500 pM human IL-33, primary basophils) was determined as 122 MFI. The same molecule returned an IC50, IL-33-induced phospho-p38 in primary human basophils, 500 pM hIL-33 in test [3] of 2.3e-12 M. Besides, in test [4], the IC50 worked out at 0.096 nM and the Maximum Blocking is 77%. The same molecule showed a Ph-p38 MFI at 2 nM Ab (500 pM human IL-33, primary basophils) in test [5] of 83 MFI. Also, in test [6], the Kd stood at 0.736 nM, the koff was found to be 0.000963 s⁻¹, the kon was 1.31e+06 M⁻¹ s⁻¹ and the t1/2 was found to be 12 min. The same molecule returned an IC50; SEAP reporter (OD 620), HEK-BLUE IL-33/IL-1beta cells, 10 pM hIL-33 in [7] of 5.7e-10 M. The molecule further yielded an IC50 (read off the curve) in test [8] of 0.002 nM.

B5: H4H9666P (antibody, from another filing, IgG4, V domains shown)
VH: QVQLVQSGAEVKKPGASVKVSCKASGYTFTSYGISWVRQAPGQGLEWMGWIRAYNGYTNYAQKFQGRVTMTTDTSTNTAYMELRTLNSDDTAVYYCARDRYSGSFHGNFDYWGQGTLVTVSS
VL: DIQMTQSPSSVSASVGDRVTITCRASQGIFSWLAWYQQKPGKAPKVLIYAASNLESGVPSRFSGSGSGTDFTLTISSLQPEDFATYYCQQANSLPLTFGGGTKVEIK
As to B5, in [1], the Kd came to 0.934 nM, the koff came out at 0.00158 s⁻¹, the kon turned out to be 1.69e+06 M⁻¹ s⁻¹ and the t1/2 turned out to be 7 min. The same molecule showed a Ph-p38 MFI at 0.4 nM Ab (500 pM human IL-33, primary basophils) in [2] of 90 MFI. For the same molecule, the IC50, IL-33-induced phospho-p38 in primary human basophils, 500 pM hIL-33 in test [3] is 7.6e-06 M. Also, in [4], the IC50 turned out to be 0.21 nM and the Maximum Blocking came to 81%. The molecule further gave a Ph-p38 MFI at 2 nM Ab (500 pM human IL-33, primary basophils) in [5] of 71 MFI. Moreover, in [6], the Kd was found to be 1.74 nM, the dissociation rate constant (koff) stood at 0.00115 s⁻¹, the on-rate (kon) was 665000 M⁻¹ s⁻¹ and the t1/2 was 10 min. Also, in test [9], the IC50; IFN-gamma ELISA, primary human NK cells, 260 pM hIL-33 + IL-12 was 1e-08 M. For the same molecule, in test [7], the IC50; SEAP reporter (OD 620), HEK-BLUE IL-33/IL-1beta cells, 10 pM hIL-33 came out at 7.1e-10 M.

B6: H4H9664P (antibody, from another filing, IgG4, V domains shown)
VH: QVQLVESGGGVVQPGRSLRLSCAASGFTFSSYGLHWVRQSPGKGLEWVALISYDGSNKYYADSVKGRFTISRDNSKNTLYLQMNSLRPEDTAGYFCAKSLYTTSWYGGFDYWGQGTLVTVSS
VL: DIQMTQSPSSVSASVGDRVTITCRASQGIRSWLAWYQQKPGKAPNLLIYAASSLQSGVPSRFSGSGSGTDFTLTISSLQPEDFATYYCQQANSFPPTFGPGTKVDIK
As to B6, in [1], the Kd was 0.674 nM, the koff stood at 0.000531 s⁻¹, the kon was determined as 789000 M⁻¹ s⁻¹ and the t1/2 was determined as 22 min. Moreover, the Ph-p38 MFI at 0.4 nM Ab (500 pM human IL-33, primary basophils) in test [2] stood at 63 MFI. In test [4], this molecule gave an IC50 of 0.19 nM and a Maximum Blocking of 87%. Further, the Ph-p38 MFI at 2 nM Ab (500 pM human IL-33, primary basophils) in test [5] turned out to be 40 MFI. In [6], this molecule registered a Kd of 1.31 nM, a koff of 0.000445 s⁻¹, a kon of 339000 M⁻¹ s⁻¹ and a t1/2 of 26 min. The molecule further displayed a phospho-p38 in primary basophils, IC50 in test [10] of 0.00014 nM. This molecule returned an IC50; SEAP reporter (OD 620), HEK-BLUE IL-33/IL-1beta cells, 10 pM hIL-33 in test [7] of 1.5e-10 M.

A word on the Kd: it is a measure of binding affinity in units of concentration. One may read the koff as a measure of how fast the partners let go of each other. One may read the kon as the rate constant with which the complex forms. Low values mean slower complex formation, high ones faster complex formation. What is called IC50 is the concentration that inhibits the measured activity by half.

Source of the values: patent publication US20190092852A1.
